According to PMC4601640, “Stability of the Human Hsp90-p50^Cdc37 Chaperone Complex against Nucleotides and Hsp90 Inhibitors, and the Influence of Phosphorylation by Casein Kinase 2” (Molecules, 2015):
Entries after “also recorded” stand apart in the source; their conditions may differ. Values belong to the substance of their own block, whether it stands above or below them.

Tests used:
p50Cdc37 1-378 = p50Cdc37 1-378 (UniProt Q16543); test: ELISA on immobilized GST-p50Cdc37, nucleotide dose-response; conditions: for other: IC50 of ATP against complex: ATP titration; for other: IC50 of ADP against complex: ADP titration
Hsp90β = Hsp90β (UniProt P08238); test: as above; conditions: sites S13
[1] = molecular target: Hsp82 (Saccharomyces cerevisiae) (UniProt P02829); conditions: cited from earlier work
Hsp82 (Saccharomyces cerevisiae), sequence (P02829 whole entry): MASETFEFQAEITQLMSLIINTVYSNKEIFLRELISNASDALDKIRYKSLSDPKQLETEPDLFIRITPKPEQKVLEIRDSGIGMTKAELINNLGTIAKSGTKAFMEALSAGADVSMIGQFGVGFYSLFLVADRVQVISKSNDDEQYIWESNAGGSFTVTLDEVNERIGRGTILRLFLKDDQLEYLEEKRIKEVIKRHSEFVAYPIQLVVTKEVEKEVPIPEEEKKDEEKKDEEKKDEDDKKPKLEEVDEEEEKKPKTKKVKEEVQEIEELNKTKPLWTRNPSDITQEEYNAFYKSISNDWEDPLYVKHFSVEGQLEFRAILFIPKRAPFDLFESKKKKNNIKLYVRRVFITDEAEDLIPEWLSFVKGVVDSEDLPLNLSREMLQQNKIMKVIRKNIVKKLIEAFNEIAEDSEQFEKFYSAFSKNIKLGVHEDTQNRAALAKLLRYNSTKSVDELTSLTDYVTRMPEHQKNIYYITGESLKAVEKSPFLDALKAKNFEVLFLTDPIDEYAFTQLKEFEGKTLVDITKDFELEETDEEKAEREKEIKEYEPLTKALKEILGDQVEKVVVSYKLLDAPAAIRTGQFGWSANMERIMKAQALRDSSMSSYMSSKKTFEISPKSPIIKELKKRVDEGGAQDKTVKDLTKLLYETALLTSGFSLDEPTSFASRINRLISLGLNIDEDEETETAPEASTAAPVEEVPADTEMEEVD

[2] = molecular target: human full-length Hsp90β (human) (UniProt P08238); test: SEC; analytical Superdex200 10/300 GL, room temperature, 0.3 mL/min; 85 µM protein in 50 mM HEPES pH 7.5, 50 mM KCl, 5 mM MgCl2, 1 mM DTT; fractions on SDS-PAGE
[3] = reference: unphosphorylated Hsp90β, sites S226,S255
[4] = reference: both proteins unphosphorylated, sites S226,S255,S13

human full-length Hsp90β, P08238 1-724 (natural protein; other documents disagree on this pair), sequence (P08238 whole entry): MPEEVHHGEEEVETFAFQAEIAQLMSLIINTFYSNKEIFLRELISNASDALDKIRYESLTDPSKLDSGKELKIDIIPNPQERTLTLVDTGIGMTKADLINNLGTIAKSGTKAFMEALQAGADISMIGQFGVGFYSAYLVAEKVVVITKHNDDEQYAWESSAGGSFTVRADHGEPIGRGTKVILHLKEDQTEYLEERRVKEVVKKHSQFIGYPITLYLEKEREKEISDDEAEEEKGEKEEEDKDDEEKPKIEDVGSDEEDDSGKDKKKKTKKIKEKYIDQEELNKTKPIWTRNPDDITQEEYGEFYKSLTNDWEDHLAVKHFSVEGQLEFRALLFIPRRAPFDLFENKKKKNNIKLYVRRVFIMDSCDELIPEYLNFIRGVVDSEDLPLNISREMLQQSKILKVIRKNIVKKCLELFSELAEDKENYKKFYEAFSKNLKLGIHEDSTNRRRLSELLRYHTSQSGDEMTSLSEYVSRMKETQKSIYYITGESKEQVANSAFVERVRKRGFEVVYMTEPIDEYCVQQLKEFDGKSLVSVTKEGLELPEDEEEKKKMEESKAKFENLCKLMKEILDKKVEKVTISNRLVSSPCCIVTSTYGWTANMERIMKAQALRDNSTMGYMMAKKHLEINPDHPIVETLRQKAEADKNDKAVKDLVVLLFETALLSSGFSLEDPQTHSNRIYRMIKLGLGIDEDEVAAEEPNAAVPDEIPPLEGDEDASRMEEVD
p50Cdc37, sequence (Q16543 whole entry): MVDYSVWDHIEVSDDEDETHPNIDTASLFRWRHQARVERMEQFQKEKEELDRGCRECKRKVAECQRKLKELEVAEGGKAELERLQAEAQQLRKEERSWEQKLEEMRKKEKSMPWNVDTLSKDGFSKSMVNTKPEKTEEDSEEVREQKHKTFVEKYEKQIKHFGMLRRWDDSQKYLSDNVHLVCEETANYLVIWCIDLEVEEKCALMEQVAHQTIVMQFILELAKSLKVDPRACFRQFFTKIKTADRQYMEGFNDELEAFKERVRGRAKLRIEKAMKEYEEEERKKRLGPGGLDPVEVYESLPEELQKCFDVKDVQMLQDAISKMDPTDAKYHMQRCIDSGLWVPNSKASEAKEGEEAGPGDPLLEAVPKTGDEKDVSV

- other: IC50 of ATP against complex (Hsp90β; reference: unphosphorylated p50Cdc37, ATP titration): same; reference >1000
Substance: p50Cdc37 1-378 (from UniProt Q16543) CK2α-phosphorylated p50Cdc37, ATP titration

- other: IC50 of ADP against complex (p50Cdc37 1-378; [4]): weaker; reference 500 ± 94
Substance: Hsp90β (from UniProt P08238) both proteins CK2α-phosphorylated, ADP titration

- other: IC50 of ATP against complex (p50Cdc37 1-378; [4]): weaker; reference >1000
Substance: Hsp90β (from UniProt P08238) both proteins CK2α-phosphorylated, ATP titration

- stoichiometry N [2]: 2
Substance: human full-length Hsp90β, P08238 1-724 (natural protein; other documents disagree on this pair)

The remaining lines, values behind:

Substance: Hsp90β (from UniProt P08238) CK2α-phosphorylated Hsp90β, ATP titration
- other: IC50 of ATP against complex (p50Cdc37 1-378; [3]): weaker; reference >1000

Substance: p50Cdc37 (from UniProt Q16543)
- Kd [1]: 1460 nM

Substance: Hsp90β (from UniProt P08238) CK2α-phosphorylated Hsp90β, ADP titration
- other: IC50 of ADP against complex (p50Cdc37 1-378; [3]): weaker; reference 500 ± 94; also recorded: weaker; reference 270 ± 35

Substance: p50Cdc37 1-378 (from UniProt Q16543) CK2α-phosphorylated p50Cdc37, ADP titration
- other: IC50 of ADP against complex (Hsp90β; reference: unphosphorylated p50Cdc37, ADP titration): weaker; reference 500 ± 94; also recorded: weaker; reference 220 ± 24
